From patent US20240199740A1 (Ablynx, published 2024)

Legend:
[1] = target: cynomolgus TCR/CD3 expressed on cells (cynomolgus); experiment: cell-based or functional assay
[2] = target: T1, human CD123 expressed on cells (human, UniProt P26951 19-378); experiment: flow cytometry competition, CHO Flp-In huCD123 cells, competitor A0110056A10-Alexa647 (0.9 nM)
T1 construct: the cell line is named under assay; also called huCD123; IL-3Rα
Description: (§1) Next to binding to the MOLM-13 and CHO Flp-In huCD123 cells, binding to cyno CD123 transfected HEK Flp-In cells was assessed.

[3] = target: T1, human CD123 expressed on cells; experiment: cell-based or functional assay
[4] = target: T1, human CD123 expressed on cells; experiment: cell-based or functional assay; remark: listed apart in the source
[5] = target: T1, human CD123 expressed on cells; experiment: cell-based or functional assay; remark: listed apart in the source
[6] = target: T2, cynomolgus CD123 expressed on HEK Flp-In cells (cynomolgus); experiment: flow cytometry competition, HEK Flp-In cyCD123 cells, competitor A0110056A10-Alexa647 (0.9 nM)
T2 construct: EHH61867.1; also called cyCD123; cyno CD123
T2 chain: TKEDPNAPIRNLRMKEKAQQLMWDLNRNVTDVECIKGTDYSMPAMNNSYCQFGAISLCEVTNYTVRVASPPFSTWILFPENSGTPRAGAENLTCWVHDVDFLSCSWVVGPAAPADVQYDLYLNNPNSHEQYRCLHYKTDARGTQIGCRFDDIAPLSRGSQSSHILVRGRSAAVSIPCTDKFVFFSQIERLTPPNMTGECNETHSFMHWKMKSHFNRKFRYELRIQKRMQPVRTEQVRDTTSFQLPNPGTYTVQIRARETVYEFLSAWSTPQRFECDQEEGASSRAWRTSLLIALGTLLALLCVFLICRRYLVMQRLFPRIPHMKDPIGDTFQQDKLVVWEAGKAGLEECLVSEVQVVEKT
Description: as §1

[7] = target: T3, cynomolgus TCR/CD3 expressed on cells (cynomolgus); experiment: flow cytometry competition, HSC-F cells, competitor T017000099 (500 nM)
T3 construct: whole, on cells; Native complex with CD3 chains; the cell type is named under assay or readout; also called cyno TCR/CD3; CD3/TCR expressed on HSC-F
Description: Cells were washed and incubated with Propidium Iodine to stain for dead cells, which are then removed during the gating procedure. The cells were then analysed via a BD FACSArray. First a P1 population which represented more than 80% of the total cell population was selected based on FSC-SSC distribution. In this gate, 10000 cells were counted during acquisition. From this population the PI+ cells (dead cells) were excluded and the median APC value was calculated.

[8] = target: T1, human CD123 expressed on cells; experiment: cell-based or functional assay; remark: listed apart in the source
[9] = target: T3, cynomolgus TCR/CD3 expressed on cells; experiment: cell-based or functional assay; remark: listed apart in the source
[10] = target: T1, human CD123 expressed on cells; experiment: flow cytometry competition, MOLM-13 cells, competitor A0110056A10-Alexa647 (0.4 nM)
Description: as §1

[11] = target: T4, human CD123 (human, UniProt P26951 19-378); experiment: cell-based or functional assay
T4 sequence (P26951 19-378 limits assumed): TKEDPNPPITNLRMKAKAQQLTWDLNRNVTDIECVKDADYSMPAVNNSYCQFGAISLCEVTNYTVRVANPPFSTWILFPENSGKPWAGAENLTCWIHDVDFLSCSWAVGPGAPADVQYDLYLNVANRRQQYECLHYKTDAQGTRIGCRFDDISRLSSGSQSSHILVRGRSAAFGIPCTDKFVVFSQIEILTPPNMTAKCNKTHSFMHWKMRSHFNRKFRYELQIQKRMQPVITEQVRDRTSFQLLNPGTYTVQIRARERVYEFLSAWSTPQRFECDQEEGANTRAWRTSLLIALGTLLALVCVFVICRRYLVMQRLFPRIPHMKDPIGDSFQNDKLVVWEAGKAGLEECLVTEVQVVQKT

[12] = target: T4, human CD123; experiment: cell-based or functional assay; remark: listed apart in the source
[13] = target: T4, human CD123; experiment: cell-based or functional assay; remark: listed apart in the source
[14] = target: T4, human CD123; experiment: cell-based or functional assay; remark: listed apart in the source
[15] = target: T5, soluble recombinant cynomolgus TCR α/β-zipper protein (cynomolgus/rhesus monkey); experiment: BLI (Octet RED384), cynomolgus TCR-zipper protein immobilized
T5 construct: Made in house in CHOK1SV cells; also called recombinant cynomolgus soluble TCRα/β-zipper protein; cynomolgus/rhesus monkey TCR α/β; not shown: the zipper protein (O'Shea et al. 1993) fused C-terminally to each chain, and any linker to it
T5 alpha: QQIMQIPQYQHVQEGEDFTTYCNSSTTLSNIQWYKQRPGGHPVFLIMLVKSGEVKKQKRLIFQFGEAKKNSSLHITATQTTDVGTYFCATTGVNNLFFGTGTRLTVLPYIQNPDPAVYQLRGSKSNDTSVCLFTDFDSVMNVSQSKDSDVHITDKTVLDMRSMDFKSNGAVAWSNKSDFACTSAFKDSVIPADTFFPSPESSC
T5 beta: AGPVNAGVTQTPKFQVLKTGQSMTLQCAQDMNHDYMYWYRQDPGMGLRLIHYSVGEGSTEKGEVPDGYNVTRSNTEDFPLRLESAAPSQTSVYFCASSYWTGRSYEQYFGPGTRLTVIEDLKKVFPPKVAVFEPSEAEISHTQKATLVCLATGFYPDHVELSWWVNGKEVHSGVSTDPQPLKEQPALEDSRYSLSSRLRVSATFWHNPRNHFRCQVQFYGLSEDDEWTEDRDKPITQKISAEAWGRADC
Description: Binding affinities were measured using Bio-Layer Interferometry (BLI) on an Octet RED384 instrument (Pall ForteBio Corp.). […] For kinetic analysis, sensors were first dipped into running buffer (10 mM Hepes, 150 mM NaCl, 0.05% p20, pH7.4 from GE Healthcare Life Sciences) to determine baseline setting. […] Affinity constants (KD) were calculated applying a 1:1 interaction model using the ForteBio Data Analysis software.

[16] = target: T5, soluble recombinant cynomolgus TCR …; experiment: ELISA, directly coated soluble cynomolgus TCR-zipper protein
Description: Quality of the TCR α/β zipper proteins was assessed in an ELISA binding assay. […] After an overnight incubation, plates were washed and blocked with PBS+1% casein for 1 h at room temperature. […] The reaction was stopped with 2M H₂SO₄ and the dose dependent binding was determined by measuring the OD at 450 nm using the Tecan sunrise 4 (FIG. 2).

[17] = target: T6, human CD3 expressed on HEK293H cells (human, UniProt P04234 22-171; P09693 23-182; P07766 23-207; P20963 22-164); experiment: flow cytometry, HEK293H human CD3 cells
T6 construct: also called HEK293H CD3; HEK293H human CD3
T6 sequence (P04234 22-171 limits assumed, chain 1 of 4): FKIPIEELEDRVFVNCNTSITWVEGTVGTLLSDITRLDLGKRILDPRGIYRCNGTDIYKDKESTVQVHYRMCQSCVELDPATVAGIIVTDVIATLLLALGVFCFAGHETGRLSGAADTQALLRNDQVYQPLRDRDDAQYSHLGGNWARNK
T6 sequence (P09693 23-182 limits assumed, chain 2 of 4): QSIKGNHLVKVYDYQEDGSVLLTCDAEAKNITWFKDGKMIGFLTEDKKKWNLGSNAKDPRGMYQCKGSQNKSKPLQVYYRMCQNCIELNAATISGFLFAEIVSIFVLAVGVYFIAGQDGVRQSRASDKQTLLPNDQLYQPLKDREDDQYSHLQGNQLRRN
T6 sequence (P07766 23-207 limits assumed, chain 3 of 4): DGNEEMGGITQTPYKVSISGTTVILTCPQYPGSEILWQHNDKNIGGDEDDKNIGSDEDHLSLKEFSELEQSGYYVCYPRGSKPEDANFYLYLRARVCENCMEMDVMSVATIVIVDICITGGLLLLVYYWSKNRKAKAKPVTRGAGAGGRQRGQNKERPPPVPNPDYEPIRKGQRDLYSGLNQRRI
T6 sequence (P20963 22-164 limits assumed, chain 4 of 4): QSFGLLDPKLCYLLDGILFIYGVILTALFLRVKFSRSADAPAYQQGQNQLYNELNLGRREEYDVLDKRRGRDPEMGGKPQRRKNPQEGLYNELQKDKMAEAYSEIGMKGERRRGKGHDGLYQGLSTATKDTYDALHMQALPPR
Excerpt: The parental HEK293H cell line was included as TCR/CD3 negative cell line.

[18] = target: T7, human TCR/CD3 on purified primary human T cells (human, UniProt P01848 1-140; P01850 1-176); experiment: flow cytometry, purified primary human T cells
T7 construct: whole, on cells; Native TCR alpha/beta with the CD3 chains on T cells isolated from buffy coat blood; also called purified primary T cells
T7 sequence (P01848 whole entry, chain 1 of 2): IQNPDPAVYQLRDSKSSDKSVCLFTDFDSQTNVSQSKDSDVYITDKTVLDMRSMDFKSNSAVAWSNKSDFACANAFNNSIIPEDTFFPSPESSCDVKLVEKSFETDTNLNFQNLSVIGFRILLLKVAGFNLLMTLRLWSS
T7 sequence (P01850 whole entry, chain 2 of 2): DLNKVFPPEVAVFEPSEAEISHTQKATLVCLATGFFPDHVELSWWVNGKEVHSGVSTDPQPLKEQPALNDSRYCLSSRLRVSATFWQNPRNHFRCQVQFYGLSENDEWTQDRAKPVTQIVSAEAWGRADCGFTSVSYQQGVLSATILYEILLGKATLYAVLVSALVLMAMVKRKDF
Description: Dose-dependent binding of the purified monovalent anti-TCR Nanobodies to human TCRα/β (2XN9)/CD3 expressed on CHO-K1 cells and to purified primary human T cells was evaluated by flow cytometry. In brief, cells were harvested and transferred to a V-bottom 96-well plate (1×10⁵ cells/well) and serial dilutions of Nanobodies (starting from 1 pM) were allowed to associate for 30 minutes at 4° C. in FACS buffer. […] After incubation, cells were washed 3 times with FACS Buffer. Subsequently, cells were resuspended in FACS buffer supplemented with 5 nM TOPRO3 (Molecular Probes, T3605) to distinguish live from dead cells, which are removed during the gating procedure. Cells were analysed using a FACS Array flow cytometer (BD Biosciences) and Flowing Software. First a P1 population which represented more than 80% of the total cell population was selected based on FSC-SSC distribution. In this gate, 10000 cells were counted during acquisition. From this population the TOPRO+ cells (dead cells) were excluded and the median PE value was calculated.

B1: T017000128 (bispecific antibody)
chain: DVQLVESGGGLVQPGGSLRLSCVASGDVHKINFLGWYRQAPGKEREKVAHISIGDQTDYADSAKGRFTISRDESKNMVYLQMNSLKPEDTAVYFCRAFSRIYPYDYWGQGTLVTVSSGGGGSGGGGSGGGGSGGGGSGGGGSGGGGSGGGGSEVQLVESGGGLVQAGGSLRLSCAASGITSKINDMGWYRQTPGNYREWVASITATGTTNYRDSVKGRFTISRDNAKSTVYLQMNSLKPEDTTVYYCNTFPPISNFWGQGTLVTVSSA
notes: Multispecific Nanobody polypeptide expressed in Pichia
% lysis, redirected cyno T cell mediated killing of KG1a cells, flow cytometry [1]: 38% | EC50 (M), redirected cyno T cell mediated killing of KG1a cells, flow cytometry [1]: 3.2e-10 M | IC50 [2]: 5.8 nM | % lysis, redirected human T cell mediated killing of KG1a cells, flow cytometry, E:T 10:1 [3]: 28% | EC50 (M), redirected human T cell mediated killing of KG1a cells, flow cytometry, E:T 10:1 [3]: 8.7e-10 M | % lysis, redirected human T cell mediated killing of MOLM-13 cells, flow cytometry, E:T 10:1 [4]: 20% | EC50 (M), redirected human T cell mediated killing of MOLM-13 cells, flow cytometry, E:T 10:1 [4]: 1.5e-10 M | EC50 (M), human IL-6 secretion during human T cell mediated killing of CD123 transfected adherent target cells [5]: 6.9e-11 M | IC50 [6]: 31 nM | IC50 [7]: 630 nM | EC50 (M), IFN-γ secretion by cynomolgus T cells during killing of CD123 transfected adherent target cells [8]: 1e-10 M | EC50 (M), IFN-γ secretion by human T cells during killing of CD123 transfected adherent target cells [8]: 8.6e-11 M | % lysis, redirected cyno T cell mediated killing of MOLM-13 cells, flow cytometry, E:T 10:1 [9]: 50% | EC50 (M), redirected cyno T cell mediated killing of MOLM-13 cells, flow cytometry, E:T 10:1 [9]: 1.8e-10 M | IC50 [10]: 3.1 nM

B2: T017000139 (bispecific antibody)
chain: DVQLVESGGGLVQPGGSLRLSCVASGDVHKINFLGWYRQAPGKEREKVAHISIGDQTDYADSAKGRFTISRDESKNMVYLQMNSLKPEDTAVYFCRAFSRIYPYDYWGQGTLVTVSSGGGGSGGGGSGGGGSGGGGSGGGGSGGGGSGGGGSEVQLVESGGGLVQAGGPLRLSCAASGRTFSSYVMGWFRQAPGKEREFVAAIYWSNGKTQYTDSVKGRFTISGDNAKNTVYLQMNSLNPEDTAVYYCVADKDETGFRTLPIAYDYWGQGTLVTVSSGGGGSGGGGSGGGGSGGGGSGGGGSGGGGSGGGGSEVQLVESGGGLVQAGGSLRLSCAASGITSKINDMGWYRQTPGNYREWVASITATGTTNYRDSVKGRFTISRDNAKSTVYLQMNSLKPEDTTVYYCNTFPPISNFWGQGTLVTVSSA
EC50 (M), human IL-6 secretion during redirected human T cell mediated killing of CD123 positive MOLM-13 cells (ELISA) [11]: 2.3e-11 M | EC50 (M), redirected cynomolgus T cell mediated killing of MOLM-13 cells, flow cytometry, E:T 10:1 [12]: 2.9e-11 M | EC50 (M), redirected human T cell mediated killing of MOLM-13 cells, flow cytometry, E:T 10:1 [12]: 2e-11 M | % lysis, redirected cynomolgus T cell mediated killing of KG1a cells, flow cytometry, E:T 10:1 [13]: 34% | % lysis, redirected human T cell mediated killing of KG1a cells, flow cytometry, E:T 10:1 [13]: 67% | EC50 (M), redirected cynomolgus T cell mediated killing of KG1a cells, flow cytometry, E:T 10:1 [13]: 1.7e-11 M | EC50 (M), redirected human T cell mediated killing of KG1a cells, flow cytometry, E:T 10:1 [13]: 8.1e-11 M | EC50 (M), human IFN-γ secretion during redirected human T cell mediated killing of CD123 positive MOLM-13 cells (ELISA) [14]: 3.4e-10 M

B3: T0170055A02 (VHH)
VHH: EVQLVESGGGLVQPGGSLRLSCAASGDVHKINILGWYRQAPAKEREMVAHITIGDATDYADSAKGRFTISRDEAKNMVYLQMNSLKPEDTAVYFCRAYSRIYPYNYWGQGTLVTVSS
notes: also called T0170PMP055A02; T01700055A02; not shown: C-terminal triple Flag, His6 tag
Kd [15]: 210 nM | EC50 [16]: 160 nM | binding result [17]: no binding (tested: 1e-6 M) | EC50 [18]: 91 nM

B4: T0170056G05 (VHH)
VHH: EVQLVESGGGLVQPGGSLRLSCVASGDVHKINFLGWYRQAPGKEREKVAHISIGDQTDYADSAKGRFTISRDESKNMVYLQMNSLKPEDTAVYFCRAFSRIYPYDYWGQGTLVTVSS
notes: Monovalent anti-TCR Nanobody; also called T0170PMP056G05; T01700056G05; not shown: C-terminal triple Flag, His6 tag
Kd [15]: 150 nM | EC50 [16]: 77 nM | binding result [17]: no binding (tested: 1e-6 M) | EC50 [18]: 91 nM
